Test results: patent US12180485B2, “Repressible control of gene expression” (TRUSTEES OF BOSTON UNIVERSITY, priority 2020, dated 2024)
Entries after “also recorded” stand apart in the source; their conditions may differ.

Tests used:
NS3a-genotype 1b = NS3a-genotype 1b (Hepatitis C virus genotype 1b, UniProt P26663, A1092G/F1173S/K1113A/P1112Q); details: disrupted by NS3a-targeting drugs; read-out: affinity of basal complex with NS3a-genotype 1b; cited from earlier work
[1] = system: mCherry expression in HEK 293 FT cells; assay: Cas13d/gRNA mCherry knockdown, transient transfection, flow cytometry; assay type: cell-based; details: mCherry expression at various levels
Description: FIG. 4A-4D is a series of schematics and graphs showing that Cas13d achieved robust transgene knockdown in HEK 293 FT cells. FIG. 4A is a schematic showing the necessary components for the CRISPR/Cas13d system. […] Minimizing either one component led to the abolishment of knockdown ability.
In order to gain better understanding of the activity of the Cas13 effector/gRNA system, it was first examined how variation in the expression of each components (e.g., target, guide, and/or effector protein) relate to the knockdown efficiency of the system. HEK 293 FT cells were transiently transfected with the components of the system, and expression of the targeted gene, mCherry, was tested using flow cytometry. […] Another important feature of Cas13d is its ability to process pre-mature gRNA arrays and achieve multiplexed gene targeting. To verify this, pre-gRNAs with spacer regions flanked by 2 direct repeat sequences were transfected with Cas13d into HEK 293 FT cells. Target gene knockdown was later quantified and compared to that by mature gRNAs.

[2] = system: bystander fluorescent proteins (GFP, BFP, iRFP); assay: Collateral cleavage of bystander fluorescent proteins by Cas13d during mCherry on-target knockdown; assay type: cell-based
Description: FIG. 5A-5C is a series of schematics and graphs showing collateral activity of Cas13d. […] As the plasmid dosage of the bystander fluorescent protein decreased, bystander expression was knocked down at a higher level.
The green fluorescent protein (GFP) was used initially as a transfection marker and as a non-targeted gene expression control. […] GFP was knocked down by Cas13d only when mCherry was present, confirming that this is a collateral activity instead of a result from non-specific gRNA design.

[3] = system: mCherry reporter and endogenous transcripts in HEK293T cells; details: cited from earlier work
NS3a/danoprevir complex = NS3a/danoprevir complex (Hepatitis C virus genotype 1a, UniProt P27958, T1100M/T1173A); details: cited from earlier work
apo NS3a = apo NS3a (Hepatitis C virus genotype 1a, UniProt P27958, T1100M/T1173A); details: cited from earlier work
[4] = system: luciferase and endogenous transcripts; details: cited from earlier work
[5] = read-out: affinity (Kd); cited from earlier work

GELDELVYLLDGPGYDPIHSD [ANR]
Kd (NS3a-genotype 1b): 10 nM

B1: Cas13d: type VI-D CRISPR-associated RNA-guided ribonuclease Cas13d Ruminococcus flavefaciens, SEQ ID NO: 1 (protein, listed as Ruminococcus flavefaciens)
chain: IEKKKSFAKGMGVKSTLVSGSKVYMTTFAEGSDARLEKIVEGDSIRSVNEGEAFSAEMADKNAGYKIGNAKFSHPKGYAVVANNPLYTGPVQQDMLGLKETLEKRYFGESADGNDNICIQVIHNILDIEKILAEYITNAAYAVNNISGLDKDIIGFGKFSTVYTYDEFKDPEHHRAAFNNNDKLINAIKAQYDEFDNFLDNPRLGYFGQAFFSKEGRNYIINYGNECYDILALLSGLRHWVVHNNEEESRISRTWLYNLDKNLDNEYISTLNYLYDRITNELTNSFSKNSAANVNYIAETLGINPAEFAEQYFRFSIMKEQKNLGFNITKLREVMLDRKDMSEIRKNHKVFDSIRTKVYTMMDFVIYRYYIEEDAKVAAANKSLPDNEKSLSEKDIFVINLRGSFNDDQKDALYYDEANRIWRKLENIMHNIKEFRGNKTREYKKKDAPRLPRILPAGRDVSAFSKLMYALTMFLDGKEINDLLTTLINKFDNIQSFLKVMPLIGVNAKFVEEYAFFKDSAKIADELRLIKSFARMGEPIADARRAMYIDAIRILGTNLSYDELKALADTFSLDENGNKLKKGKHGMRNFIINNVISNKRFHYLIRYGDPAHLHEIAKNEAVVKFVLGRIADIQKKQGQNGKNQIDRYYETCIGKDKGKSVSEKVDALTKIITGMNYDQFDKKRSVIEDTGRENAEREKFKKIISLYLTVIYHILKNIVNINARYVIGFHCVERDAQLYKEKGYDINLKKLEEKGFSSVTKLCAGIDETAPDKRKDVEKEMAERAKESIDSLESANPKLYANYIKYSDEKKAEEFTRQINREKAKTALNAYLRNTKWNVIIREDLLRIDNKTCTLFRNKAVHLEVARYVHAYINDIAEVNSYFQLYHYIMQRIIMNERYEKSSGKVSEYFDAVNDEKKYNDRLLKLLCVPFGYCIPRFKNLSIEALFDRNEAAKFDKEKKKVSGNS
mCherry knockdown efficiency [1]: around 80% | effect on bystander iRFP expression ([2]; mCherry on-target knockdown by Cas13d): least disturbed; also recorded: minimally affected | effect on bystander BFP expression ([2]; mCherry targeting Cas13d system): strongly affected | effect on bystander GFP expression ([2]; mCherry targeting Cas13d system, mCherry present): knocked down along with mCherry | knockdown efficiency ([3]; HEK293T cells, mCherry reporter and endogenous transcripts): 80-95% | knockdown of mCherry and endogenous gene expression ([3]; mammalian cells): 85-90%

B2: DNCR2: danoprevir/NS3 complex reader, SEQ ID NO: 163 (protein)
chain: SSDEEEARELIERAKEAAERAQEAAERTGDPRVRELARELKRLAQEAAEEVKRDPSSSDVNEALKLIVEAIEAAVDALEAAERTGDPEVRELARELVRLAVEAAEEVQRNPSSSDVNEALHSIVYAIEAAIFALEAAERTGDPEVRELARELVRLAVEAAEEVQRNPSSRNVEHALMRIVLAIYLAEENLREAEESGDPEKREKARERVREAVERAEEVQRDPSGWLNH
selectivity over NS3a bound to the drugs grazoprevir or asunaprevir (NS3a/danoprevir complex): > 20,000 fold | binding to free danoprevir (NS3a/danoprevir complex; free danoprevir, no NS3a): does not bind substantially | Kd (NS3a/danoprevir complex; read-out: affinity for the NS3a/danoprevir complex): 0.036 nM | binding to apo NS3a (apo NS3a): no detectable binding

B3: LwaCas13b: Leptotrichia wadei Cas13a, SEQ ID NO: 2 (protein, listed as Leptotrichia wadei)
chain: MKVTKVDGISHKKYIEEGKLVKSTSEENRTSERLSELLSIRLDIYIKNPDNASEEENRIRRENLKKFFSNKVLHLKDSVLYLKNRKEKNAVQDKNYSEEDISEYDLKNKNSFSVLKKILLNEDVNSEELEIFRKDVEAKLNKINSLKYSFEENKANYQKINENNVEKVGGKSKRNIIYDYYRESAKRNDYINNVQEAFDKLYKKEDIEKLFFLIENSKKHEKYKIREYYHKIIGRKNDKENFAKIIYEEIQNVNNIKELIEKIPDMSELKKSQVFYKYYLDKEELNDKNIKYAFCHFVEIEMSQLLKNYVYKRLSNISNDKIKRIFEYQNLKKLIENKLLNKLDTYVRNCGKYNYYLQVGEIATSDFIARNRQNEAFLRNIIGVSSVAYFSLRNILETENENGITGRMRGKTVKNNKGEEKYVSGEVDKIYNENKQNEVKENLKMFYSYDFNMDNKNEIEDFFANIDEAISSIRHGIVHFNLELEGKDIFAFKNIAPSEISKKMFQNEINEKKLKLKIFKQLNSANVFNYYEKDVIIKYLKNTKFNFVNKNIPFVPSFTKLYNKIEDLRNTLKFFWSVPKDKEEKDAQIYLLKNIYYGEFLNKFVKNSKVFFKITNEVIKINKQRNQKTGHYKYQKFENIEKTVPVEYLAIIQSREMINNQDKEEKNTYIDFIQQIFLKGFIDYLNKNNLKYIESNNNNDNNDIFSKIKIKKDNKEKYDKILKNYEKHNRNKEIPHEINEFVREIKLGKILKYTENLNMFYLILKLLNHKELTNLKGSLEKYQSANKEETFSDELELINLLNLDNNRVTEDFELEANEIGKFLDFNENKIKDRKELKKFDTNKIYFDGENIIKHRAFYNIKKYGMLNLLEKIADKAKYKISLKELKEYSNKKNEIEKNYTMQQNLHRKYARPKKDEKFNDEDYKEYEKAIGNIQKYTHLKNKVEFNELNLLQGLLLKILHRLVGYTSIWERDLRFRLKGEFPENHYIEEIFNFDNSKNVKYKSGQIVEKYINFYKELYKDNVEKRSIYSDKKVKKLKQEKKDLYIRNYIAHFNYIPHAEISLLEVLENLRKLLSYDRKLKNAIMKSIVDILKEYGFVATFKIGADKKIEIQTLESEKIVHLKNLKKKKLMTDRNSEELCELVKVMFEYKALE
knockdown efficiency [4]: 50%

B4: aCaffVHH: VHH camelid antibody that specifically binds to caffeine, SEQ ID NO: 1980 (protein)
VHH: EVQLQASGGGLVQAGGSLRLSCTASGRTGTIYSMAWFRQAPGKEREFLATVGWSSGITYYMDSVKGRFTISRDNAKNSAYLQMNSLKPEDTAVYYCTATRAYSVGYDYWGQGTQVTVSH
Kd [5]: 500 nM
